Assay [1] has as its target T1, hRARα (human, UniProt P10276 1-462).
T1 construct: also called human RAR alpha
T1 sequence (looked up): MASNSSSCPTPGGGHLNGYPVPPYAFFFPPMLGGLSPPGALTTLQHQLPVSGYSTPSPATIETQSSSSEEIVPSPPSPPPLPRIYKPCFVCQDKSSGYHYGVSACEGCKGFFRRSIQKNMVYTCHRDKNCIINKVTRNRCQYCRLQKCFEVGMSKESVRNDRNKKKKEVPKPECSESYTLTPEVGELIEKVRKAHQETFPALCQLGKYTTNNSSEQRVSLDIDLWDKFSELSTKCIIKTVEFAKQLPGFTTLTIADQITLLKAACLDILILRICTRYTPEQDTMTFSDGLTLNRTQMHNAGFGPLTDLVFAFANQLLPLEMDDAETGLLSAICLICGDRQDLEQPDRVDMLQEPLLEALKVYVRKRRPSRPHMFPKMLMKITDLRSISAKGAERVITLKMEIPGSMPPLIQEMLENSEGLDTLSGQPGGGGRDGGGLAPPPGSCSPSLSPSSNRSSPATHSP
In words: in vitro DNA-binding (gel shift) with in vitro translated proteins and a cocktail of response elements.

The target in assay [2] is T2, hRXRα (human, UniProt P19793 1-462).
T2 construct: In vitro transcribed and translated protein used in gel shift assays with XOR-6; also called human RXR alpha
T2 sequence (looked up): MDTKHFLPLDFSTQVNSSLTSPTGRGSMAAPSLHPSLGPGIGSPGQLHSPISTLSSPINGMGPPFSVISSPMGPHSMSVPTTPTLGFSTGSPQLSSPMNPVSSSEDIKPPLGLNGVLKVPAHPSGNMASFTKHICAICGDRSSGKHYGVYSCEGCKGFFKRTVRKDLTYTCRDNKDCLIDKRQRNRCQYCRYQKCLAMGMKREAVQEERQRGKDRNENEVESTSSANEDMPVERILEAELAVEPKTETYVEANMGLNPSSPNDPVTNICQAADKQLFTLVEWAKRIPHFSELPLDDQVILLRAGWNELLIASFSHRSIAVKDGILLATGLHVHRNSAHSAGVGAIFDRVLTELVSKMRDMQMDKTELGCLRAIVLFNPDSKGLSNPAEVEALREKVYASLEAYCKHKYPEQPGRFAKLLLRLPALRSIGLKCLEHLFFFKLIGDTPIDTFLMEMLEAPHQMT
Kind of assay: in vitro DNA-binding (gel shift) with in vitro translated proteins. The protocol: DNA-binding analysis was performed using in vitro transcribed, translated proteins (Perlmann et al., 1993, supra. oligonucleotides employed have been described previously (see Umesono et al., in Cell 65:1255-1266 (1990) and Perlmann et al., 1993, supra).
Thus, in vitro transcribed and translated proteins were mixed with a cocktail of hormone response elements containing DR0, DR1, PPRE, DR2, MLV-TRE, SPP1, and β-RARE. Thus, XOR-6 and hRXRα proteins were mixed and incubated with radiolabelled response elements. DR-1 through 5 are direct repeats of the sequence […] separated by 1-5 nucleotides. Reaction conditions and gel electrophoresis employed were as described by Perlmann et al., 1993, supra.

B1: XOR-6 (Xenopus Orphan Receptor 6) (receptor)
chain: MWKVQETLVLEEEEEEEDASNSCGTGEDEDDGDPKICRACGDRATGYHFNAMTCEGCKGFFRRAVKRNLRLSCPFQNSCVINKSNRRHCQACRLKKCLDIGMRKELIMSDAAVEQRRALIKRKHKLTKLPPTPPGASLTPEQQHFLTQLVGAHTKTFDFNFTFSKNFRPIRRSSDPTQEPQATSSEAFLMLPHISDLVTYMIKGIISFAKMLPYFKSLDIEDQIALLKGSVAEVSVIRFNTVFNSDTNTWECGPFTYDTEDMFLAGFRQLFLEPLVRIHRMMRKLNVQSEEYAMMAALSIFASYRPGVCDWEKIQKLQEHIALTLKDFIDSQRPPSPQNRLLYPKIMECLTELRTVNDIHSKQLLEIWDIQPDATPLMREVFGSPE
notes: Expressed from pCDG-XOR6 (XOR-6 protein coding region) in CV-1 cells; Full-length, about 386 amino acids; also called full-length XOR-6
Take B1: the binding result is recorded as “no binding” in assay [1] and “binds” in assay [2].

The values are drawn from patent US20030044914A1 (SALK INSTITUTE FOR BIOLOGICAL STUDIES, published 2003).
